Drawing on patent publication US20060094659A1, this text covers percent blocking of DBP binding to cells and percent inhibition of cell binding to immobilized DBP for three molecules.

Assay [1] has as its target annexin A2 on the surface of U937-C5aR cells and human neutrophils (human) (UniProt P07355). In words: AlexaFluor 488-labeled DBP binding to U937-C5aR cells pretreated with antibody, fluorescence.
The target in assay [2] is CD44 on the surface of U937-C5aR cells and human neutrophils (human) (UniProt P16070). In words: Biacore SPR, U937-C5aR cells pretreated with 25 µg/ml anti-CD44, DBP immobilized.
Assay [3] has the same target. In words: AlexaFluor 488-labeled DBP binding to U937-C5aR cells pretreated with antibody, fluorescence.
Assay [4] addresses cell surface DBP binding site complex. The experiment in a line: Biacore SPR, U937-C5aR cells pretreated with 0.5 µM peptide 2, DBP immobilized (competitor: immobilized DBP).

Chain of annexin A2 on the surface of U937-C5aR cells and human neutrophils (human) (P07355 2-339): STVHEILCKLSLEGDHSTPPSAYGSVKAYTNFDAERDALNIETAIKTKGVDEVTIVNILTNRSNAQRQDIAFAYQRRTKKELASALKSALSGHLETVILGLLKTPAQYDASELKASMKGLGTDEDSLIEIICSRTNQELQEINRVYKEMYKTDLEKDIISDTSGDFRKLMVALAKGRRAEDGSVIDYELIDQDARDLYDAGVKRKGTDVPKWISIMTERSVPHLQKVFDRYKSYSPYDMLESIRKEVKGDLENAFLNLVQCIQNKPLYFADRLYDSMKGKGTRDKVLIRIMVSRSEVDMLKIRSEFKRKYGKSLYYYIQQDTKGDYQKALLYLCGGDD

Take “affinity-purified goat polyclonal anti-annexin A2 (C-16), Santa Cruz Biotechnology (antibody)”: the percent blocking of DBP binding to cells in assay [1] was found to be 50%. As for “affinity-purified goat polyclonal anti-CD44 (N-18), Santa Cruz Biotechnology (antibody)”, the percent inhibition of cell binding to immobilized DBP in assay [2] turned out to be 50%. The percent blocking of DBP binding to cells in assay [3] was 50%. For NYGQAPLSLLVSYTKSYLSMVGS [DBP peptide 2 (residues 150-172)], the percent inhibition of cell binding to immobilized DBP in assay [4] came to 50%.
